Measurements as given in patent US20180086804A1 (COMMISSARIAT A L ENERGIE ATOMIQUE ET AUX ENERGIES …, published 2018).
No end group written: not given here.

T1: HLA-DR13 (HLA-DRB1*13:01) (human)
T1 chain 1: not shown
T1 chain 2: not shown


Key:
[1] = biological target: T2, HLA-DR15 (HLA-DRB1*15:01) (human); experiment: competition ELISA vs biotin-A3 152-166
T2 construct: mature; purified from homozygous EBV-transformed lymphoblastoid cells with antibody L243

[2] = biological target: T3, HLA-DP402 (HLA-DPB1*04:02) (human, UniProt P20036 29-222); experiment: competition ELISA vs biotin-Oxy 271-287
T3 construct: mature; purified from homozygous EBV-transformed lymphoblastoid cells with antibody B7/21

HLA-DR1 (HLA-DRB1*01:01) = biological target: T4, HLA-DR1 (HLA-DRB1*01:01) (human); experiment: competition ELISA vs biotin-HA 306-318;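 further: HLA and competitor incubated 24 to 72 h, maximal signal taken from wells lacking competitor, background from wells lacking HLA molecule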
T4 construct: mature; class II HLA molecule purified from homozygous EBV-transformed lymphoblastoid cells with antibody L243

HLA-DR4 (HLA-DRB1*04:01) = biological target: T5, HLA-DR4 (HLA-DRB1*04:01) (human); experiment: competition ELISA vs biotin-HA 306-318;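 further: HLA and competitor incubated 24 to 72 h, maximal signal taken from wells lacking competitor, background from wells lacking HLA molecule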
T5 construct: mature; purified from homozygous EBV-transformed lymphoblastoid cells with antibody L243

[3] = biological target: T6, HLA-DR11 (HLA-DRB1*11:01) (human); experiment: competition ELISA vs biotin-HA 306-318;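 further: HLA and competitor incubated 24 to 72 h, maximal signal taken from wells lacking competitor, background from wells lacking HLA molecule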
T6 construct: mature; purified from homozygous EBV-transformed lymphoblastoid cells with antibody L243

[4] = biological target: T7, HLA-DRB4 (HLA-DRB4*01:01) (human); experiment: competition ELISA vs biotin-E2/E168
T7 construct: mature; purified from homozygous EBV-transformed lymphoblastoid cells with antibody L243

[5] = biological target: T8, HLA-DR13 (HLA-DRB1*13:01) (human); experiment: competition ELISA vs biotin-B1 21-36
T8 construct: mature; purified from homozygous EBV-transformed lymphoblastoid cells with antibody L243

[6] = biological target: T1, HLA-DR13 (HLA-DRB1*13:01) (human); experiment: competition ELISA vs biotin-B1 21-36
[7] = biological target: T9, HLA-DP401 (HLA-DPB1*04:01) (human, UniProt P20036 29-222); experiment: competition ELISA vs biotin-Oxy 271-287
T9 construct: mature; purified from homozygous EBV-transformed lymphoblastoid cells with antibody B7/21

HLA-DR3 (HLA-DRB1*03:01) = biological target: T10, HLA-DR3 (HLA-DRB1*03:01) (human); experiment: competition ELISA vs biotin-MT 2-16
T10 construct: mature; purified from homozygous EBV-transformed lymphoblastoid cells with antibody L243

[8] = biological target: T11, HLA-DRB3 (HLA-DRB3*01:01) (human); experiment: competition ELISA vs biotin-LOL 191-210
T11 construct: mature; purified from homozygous EBV-transformed lymphoblastoid cells with antibody L243

[9] = biological target: T12, HLA-DRB5 (HLA-DRB5*01:01) (human); experiment: competition ELISA vs biotin-HA 306-318;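 further: HLA and competitor incubated 24 to 72 h, maximal signal taken from wells lacking competitor, background from wells lacking HLA molecule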
T12 construct: mature; purified from homozygous EBV-transformed lymphoblastoid cells with antibody L243

HLA-DR7 (HLA-DRB1*07:01) = biological target: T13, HLA-DR7 (HLA-DRB1*07:01) (human); experiment: competition ELISA vs biotin-YKL
T13 construct: mature; purified from homozygous EBV-transformed lymphoblastoid cells with antibody L243

| Binder | relative affinity [1] | relative affinity [2] | relative affinity (HLA-DR1 (HLA-DRB1*01:01)) | relative affinity (HLA-DR4 (HLA-DRB1*04:01)) | relative affinity [3] | relative affinity [4] | relative affinity [5] | IC50 [6] [nM] | relative affinity [7] | relative affinity (HLA-DR3 (HLA-DRB1*03:01)) | relative affinity [8] | relative affinity [9] | relative affinity (HLA-DR7 (HLA-DRB1*07:01)) |
| --- | --- | --- | --- | --- | --- | --- | --- | --- | --- | --- | --- | --- | --- |
| AKISTLPQLNSALVQ-NH2 [CCNB1 410-424] | 12 | 1120 | 89 | 408 | 1 | 966 | 94 | – | – | – | – | – | – |
| TERVRLVTRHIYNREE (modifications not checked) [B1 21-36] | – | – | – | – | – | – | – | 51 | – | – | – | – | – |
| HTLAKYLMELTMLDY-NH2 [CCNB1 320-334] | 3 | 3 | 16 | 1 | 2 | 18 | 10 | – | 8 | 1 | 24 | 17 | 18 |
| PQLNSALVQDLAKAV-NH2 [CCNB1 416-430] | 71 | 74 | 693 | 54 | 123 | 1800 | – | – | 59 | 9 | 3 | 548 | 47 |
| AKYLMELTMLDYDMV-NH2 [CCNB1 323-337] | 2 | 6 | 4 | 0.2 | 0.4 | 7 | – | – | 1 | 2 | 41 | 2 | 8 |
| MEMKILRALNFGLGR-NH2 [CCNB1 285-299] | 0.03 | 4 | 1 | 7 | 4 | 18 | 1 | – | 30 | 51 | – | 2 | 0.1 |
| NSALVQDLAKAVAKV-NH2 [CCNB1 419-433] | 7 | 148 | 155 | 333 | 3 | – | 37 | – | – | 1 | 7 | – | 183 |
